Reference: patent publication US7132397B1

Target: BMP receptors

ALPase activity in C3H10T 1/2 cells (times higher than the control group) | ALPase activity in MC3T3-E1 cells (times higher than the control group) | Binder
40 |  | recombinant mature human BMP-2 (ligand) QAKHKQRKRLKSSCKRHPLYVDFSDVGWNDWIVAPPGYHAFYCHGECPFPLADHLNSTNHAIVQTLVNSVNSKIPKACCVPTELSAISMLYLDENEKVVLKNYQDMVVEGCGCR
 | 3 | unmodified mature human MP52 (ligand) PLATRQGKRPSKNLKARCSRKALHVNFKDMGWDDWIIAPLEYEAFHCEGLCEFPLRSHLEPTNHAVIQTLMNSMDPESTPPTCCVPTRLSPISILFIDSANNVVYKQYEDMVVESCGCR
